Measurements published in PMC5434815, “The role of histidines in amyloid β fibril assembly” (Febs Letters, 2017).
Each block holds one substance with its values, some of them ahead of it.

Tests used:
Amyloid β 1–40 H6A [1] = experiment: SPR; preformed fibrils immobilised on a CM5 chip by amine coupling (3500 RU), probed with monomers of the same variant; monomer onto fibril end; 25 °C, 20 μL/min, 20 mM phosphate pH 7.4, 150 mM NaCl; slow phase of dissociation only; KD = RD/RA x KD of Aβ1-40 wt (100 nM, from earlier work)
Amyloid β 1–40 H6A [2] = experiment: SPR; preformed fibrils immobilised on a CM5 chip by amine coupling (3500 RU), probed with monomers of the same variant; monomer onto fibril end; 25 °C, 20 μL/min, 20 mM acetate pH 5.5, 150 mM NaCl; slow phase of dissociation only; KD = RD/RA x KD of Aβ1-40 wt (1 nM, from earlier work)
[3] = target: Amyloid β 1–40 H6A, H13A, H14A; experiment: SPR; preformed fibrils immobilised on a CM5 chip by amine coupling (3500 RU), probed with monomers of the same variant; monomer onto fibril end; 25 °C, 20 μL/min, 20 mM phosphate pH 7.4, 150 mM NaCl; slow phase of dissociation only; KD = RD/RA x KD of Aβ1-40 wt (100 nM, from earlier work)
[4] = target: Amyloid β 1–40 H6A, H13A, H14A; experiment: SPR; preformed fibrils immobilised on a CM5 chip by amine coupling (3500 RU), probed with monomers of the same variant; monomer onto fibril end; 25 °C, 20 μL/min, 20 mM acetate pH 5.5, 150 mM NaCl; slow phase of dissociation only; KD = RD/RA x KD of Aβ1-40 wt (1 nM, from earlier work)
Amyloid β 1–40 H13A [5] = experiment: SPR; preformed fibrils immobilised on a CM5 chip by amine coupling (3500 RU), probed with monomers of the same variant; monomer onto fibril end; 25 °C, 20 μL/min, 20 mM phosphate pH 7.4, 150 mM NaCl; slow phase of dissociation only; KD = RD/RA x KD of Aβ1-40 wt (100 nM, from earlier work)
Amyloid β 1–40 H13A [6] = experiment: SPR; preformed fibrils immobilised on a CM5 chip by amine coupling (3500 RU), probed with monomers of the same variant; monomer onto fibril end; 25 °C, 20 μL/min, 20 mM acetate pH 5.5, 150 mM NaCl; slow phase of dissociation only; KD = RD/RA x KD of Aβ1-40 wt (1 nM, from earlier work)
Amyloid β 1–40 H14A [7] = experiment: SPR; preformed fibrils immobilised on a CM5 chip by amine coupling (3500 RU), probed with monomers of the same variant; monomer onto fibril end; 25 °C, 20 μL/min, 20 mM phosphate pH 7.4, 150 mM NaCl; slow phase of dissociation only; KD = RD/RA x KD of Aβ1-40 wt (100 nM, from earlier work)
Amyloid β 1–40 H14A [8] = experiment: SPR; preformed fibrils immobilised on a CM5 chip by amine coupling (3500 RU), probed with monomers of the same variant; monomer onto fibril end; 25 °C, 20 μL/min, 20 mM acetate pH 5.5, 150 mM NaCl; slow phase of dissociation only; KD = RD/RA x KD of Aβ1-40 wt (1 nM, from earlier work)
[9] = tested on: corresponding immobilised fibrils (fibrillar form of Aβ); experiment: SPR association rate k(on) of Aβ monomers onto immobilised fibrils, relative to Aβ1–40 wt; format: binding; conditions: 150 mM NaCl, 25 °C, 20 μL·min^−1, CM5 chip, fibrils at 3500 RU, end state after 60 s injection, Aβ1–40 wt = 1
Experimental: (§1) Recombinant variants of Aβ1–40, Aβ1–40 H6A, Aβ1–40 H13A, Aβ1–40 H14A and Aβ1–40 H6A, H13A, H14A were obtained from AlexoTech (Umeå, Sweden). All lyophilised peptides were solubilised in 20 mM NaOH and separated by size‐exclusion chromatography (Superdex 10/300, GE Life Science, Uppsala, Sweden) in PBS with 2 mM EDTA, 5 mM NaOH and 150 mM NaCl. The pH of all purified peptide solutions was adjusted using a stock solution of phosphate or acetate buffer to give a final buffer concentration corresponding to 20 mM phosphate (pH 7.4) or acetate (pH 5.5) and 150 mM NaCl.
(§2) The interaction study between the fibrillar form of Aβ and its monomeric form was performed using a BIAcore® 3000 biosensor (GE Healthcare®, Uppsala, Sweden) equipped with a CM5 sensor chip (GE Healthcare®). First, the fibrillar form of Aβ was immobilised at a density of 3500 response units (RUs) on the dextran layer of the chip using standard amino coupling reagents at pH 4.0. All SPR experiments were performed at 25 °C at a flow rate of 20 μL·min^−1 in either a 20 mM phosphate buffer (pH 7.4) or 20 mM acetate buffer (pH 5.5). All experiments were performed in the presence of 150 mM NaCl, which represents a physiological ion‐strength.
Due to the polymeric nature of amyloid fibrils, the covalent immobilisation on the sensor chip, likely only occurs in minor fraction of the accessible amino groups. This treatment is therefore not anticipated to influence the overall incorporation of monomers in a significant manner. However, the influence from using immobilised fibrils or the dextran layer cannot be fully excluded and should therefore be disclosed.
(§3) All sensograms were corrected for nonspecific interactions using a reference surface according to standard procedures 16.
Probing free monomeric Aβ against immobilised fibrils using SPR is a frequently used technique for measuring the intrinsic kinetic properties of Aβ polymerisation 11, 14, 17, 18, 19.
Fibrils from recombinant variants of Aβ1–40, Aβ1–40 H6A, Aβ1–40 H13A, Aβ1–40 H14A and Aβ1–40 H6A, H13A, H14A were prepared by prolonged incubation in either PBS (pH 7.4) or acetate buffer pH 5.5 containing 150 mM NaCl. Fibrils immobilised on a CM5 chip were then probed with their monomeric counterpart at different concentrations of Aβ monomers and analysed by SPR. Samples were injected for exactly 60 s and the maximal value at the end state of each injection (indicated by arrow 1 in Fig. 1A) was plotted as a function of the monomeric concentration, Fig. 2. This generates an association rate at each point of measurement. A guideline is given in the figures to illustrate the linearity.
By comparing the rate between the different Aβ variants, it is possible to determine relative differences in k(on).

[10] = tested on: corresponding immobilised fibrils (fibrillar form of Aβ); experiment: SPR dissociation rate k(off) of Aβ fibrils, slow phase, relative to Aβ1–40 wt; format: binding; conditions: 150 mM NaCl, 25 °C, after 2 μM monomer injection, slow phase, points before 100 s excluded, one exponential decay, Aβ1–40 wt = 1
Experimental: as §1, §2, §3
Note that the dissociation phase exposes a biphasic curvature. This is highly representative and frequently observed when performing these kinds of experiments. […] All analyses of decay rates within this work are therefore exclusively focused on the slower second phase of dissociation.
In contrast to the association rate, kon, the rate of dissociation, koff, is independent of the concentration of monomers. Subsequent to probing, the immobilised fibrils with free monomers, the rate of dissociation can be seen as a decrease in the signal over time.
Because the latter part of the curve, representing the slower phase of dissociation (indicated by arrow 3 Fig. 1), strongly dominates the interaction strength, we have exclusively focused on this part, and no points before 100 s were included in the curve. The dissociation curve could then be fitted to a one exponential decay.

[11] = tested on: immobilised Aβ fibrils / fibrillar end; experiment: Fibril stability (KD, RD/RA, potentiation factor) from SPR association and dissociation; format: binding; conditions: 25 °C, relative to Aβ1–40 wt
Experimental: as §2, §3
While a simple interaction between, for example, a receptor and ligand can easily be determined through saturation experiments, this cannot be done with polymers since they, per definition, cannot be saturated.
This problem can, however, be circumvented by defining the concentration of free monomers where the fibrils are at steady state, i.e. the concentration of free monomers where neither association nor dissociation can be detected. We have previously shown that the KD for Aβ1–40 wt at neutral pH is around 100 nM and around 1 nM at pH 5.5 11, 13. The KD at neutral pH has also been investigated by Hasegawa and co‐workers 14 with similar results. All figures used here are therefore given as relative values to the KD for Aβ1–40 wt corresponding to 100 nM at neutral pH and 1 nM at pH 5.5.
Multiplying the relative RD/RA with the KD for Aβ 1–40 wt will then give the KD for the histidine derivatives.

Kd (Amyloid β 1–40 H6A [1]): 0.427 µM | RA (association rate relative to Aβ1-40 wt) (Amyloid β 1–40 H6A [1]): 0.45 | RD (dissociation rate relative to Aβ1-40 wt) (Amyloid β 1–40 H6A [1]): 1.92 | Kd (Amyloid β 1–40 H6A [2]): 0.00143 µM | RA (association rate relative to Aβ1-40 wt) (Amyloid β 1–40 H6A [2]): 1.94 | RD (dissociation rate relative to Aβ1-40 wt) (Amyloid β 1–40 H6A [2]): 2.78
Substance: Amyloid β 1–40 H6A (peptide)

Kd [3]: 1.23 µM | RA (association rate relative to Aβ1-40 wt) [3]: 0.22 | RD (dissociation rate relative to Aβ1-40 wt) [3]: 2.7 | Kd [4]: 0.00531 µM | RA (association rate relative to Aβ1-40 wt) [4]: 1.57 | RD (dissociation rate relative to Aβ1-40 wt) [4]: 8.33
Substance: Amyloid β 1–40 H6A, H13A, H14A (peptide)

Kd (Amyloid β 1–40 H13A [5]): 0.716 µM | RA (association rate relative to Aβ1-40 wt) (Amyloid β 1–40 H13A [5]): 0.31 | RD (dissociation rate relative to Aβ1-40 wt) (Amyloid β 1–40 H13A [5]): 2.22 | Kd (Amyloid β 1–40 H13A [6]): 0.00211 µM | RA (association rate relative to Aβ1-40 wt) (Amyloid β 1–40 H13A [6]): 1.01 | RD (dissociation rate relative to Aβ1-40 wt) (Amyloid β 1–40 H13A [6]): 2.13
Substance: Amyloid β 1–40 H13A (peptide)

Kd (Amyloid β 1–40 H14A [7]): 0.794 µM | RA (association rate relative to Aβ1-40 wt) (Amyloid β 1–40 H14A [7]): 0.34 | RD (dissociation rate relative to Aβ1-40 wt) (Amyloid β 1–40 H14A [7]): 2.7 | Kd (Amyloid β 1–40 H14A [8]): 0.00219 µM | RA (association rate relative to Aβ1-40 wt) (Amyloid β 1–40 H14A [8]): 1.01 | RD (dissociation rate relative to Aβ1-40 wt) (Amyloid β 1–40 H14A [8]): 2.22
Substance: Amyloid β 1–40 H14A (peptide)

RD/RA ([11]; pH 5.5, 150 mM NaCl): 1.43 | RD/RA ([11]; pH 7.4, 150 mM NaCl): 4.27
Substance: Aβ1–40 H6A
RA, relative association (k(on) versus Aβ1–40 wt) ([9]; pH 5.5, 20 mM acetate): 1.94 | RA, relative association (k(on) versus Aβ1–40 wt) ([9]; pH 7.4, 20 mM phosphate): 0.45 | RD, relative dissociation (k(off) versus Aβ1–40 wt) ([10]; pH 5.5, 20 mM acetate): 2.78 | RD, relative dissociation (k(off) versus Aβ1–40 wt) ([10]; pH 7.4, 20 mM phosphate): 1.92
